# Experimental data: US8486893B2, “Treatment of conditions involving demyelination” (Biogen Idec MA Inc., priority 2004, dated 2013)
# Positions of bridges follow the written chain, without caps; N, C: chain ends. No end group written: not given here. *: point of attachment. Biotin = O=C1N[C@H]2[C@H](CS[C@H]2CCCCC(=O)*)N1
# B1: DN-Sp35: dominant negative Sp35, amino acid residues 34-581 of SEQ ID NO:2, expressed from lentiviral vector (protein, listed as Homo sapiens)
# chain: TGCPPRCECSAQDRAVLCHRKRFVAVPEGIPTETRLLDLGKNRIKTLNQDEFASFPHLEELELNENIVSAVEPGAFNNLFNLRTLGLRSNRLKLIPLGVFTGLSNLTKLDISENKIVILLDYMFQDLYNLKSLEVGDNDLVYISHRAFSGLNSLEQLTLEKCNLTSIPTEALSHLHGLIVLRLRHLNINAIRDYSFKRLYRLKVLEISHWPYLDTMTPNCLYGLNLTSLSITHCNLTAVPYLAVRHLVYLRFLNLSYNPISTIEGSMLHELLRLQEIQLVGGQLAVVEPYAFRGLNYLRVLNVSGNQLTTLEESVFHSVGNLETLILDSNPLACDCRLLWVFRRRWRLNFNRQQPTCATPEFVQGKEFKDFPDVLLPNYFTCRRARIRDRKAQQVFVDEGHTVQFVCRADGDPPPAILWLSPRKHLVSAKSNGRLTVFPDGTLEVRYAQVQDNGTYLCIAANAGGNDSMPAHLHVRSYSPDWPHQPNKTFAFISNQPGEGEANSTRATVPFPFDIKTLIIATTMGFISFLGVVLFCLVLLFLWSRGKG
# B2: FL-Sp35: mouse full length Sp35, amino acid residues 34-614 of SEQ ID NO:2, expressed from lentiviral vector (protein, listed as Homo sapiens)
# chain: TGCPPRCECSAQDRAVLCHRKRFVAVPEGIPTETRLLDLGKNRIKTLNQDEFASFPHLEELELNENIVSAVEPGAFNNLFNLRTLGLRSNRLKLIPLGVFTGLSNLTKLDISENKIVILLDYMFQDLYNLKSLEVGDNDLVYISHRAFSGLNSLEQLTLEKCNLTSIPTEALSHLHGLIVLRLRHLNINAIRDYSFKRLYRLKVLEISHWPYLDTMTPNCLYGLNLTSLSITHCNLTAVPYLAVRHLVYLRFLNLSYNPISTIEGSMLHELLRLQEIQLVGGQLAVVEPYAFRGLNYLRVLNVSGNQLTTLEESVFHSVGNLETLILDSNPLACDCRLLWVFRRRWRLNFNRQQPTCATPEFVQGKEFKDFPDVLLPNYFTCRRARIRDRKAQQVFVDEGHTVQFVCRADGDPPPAILWLSPRKHLVSAKSNGRLTVFPDGTLEVRYAQVQDNGTYLCIAANAGGNDSMPAHLHVRSYSPDWPHQPNKTFAFISNQPGEGEANSTRATVPFPFDIKTLIIATTMGFISFLGVVLFCLVLLFLWSRGKGNTKHNIEIEYVPRKSDAGISSADAPRKFNMKMI
# B3: Sp35-Ig-Fc: Sp35 amino acids 417-493 fused to Fc (protein)
# chain: RARIRDRKAQQVFVDEGHTVQFVCRADGDPPPAILWLSPRKHLVSAKSNGRLTVFPDGTLEVRYAQVQDNGTYLCIA
# modifications: left off: a dimerising Fc or GST
# notes: Sp35 amino acids 417-493 fused to Fc
# How the values were obtained:
# Format in all cases: cell-based, rat
# [1] = tested on: co-cultures of dorsal root ganglion (DRG) neurons and oligodendrocytes; assay: In vitro myelination in co-cultures of DRG neurons and oligodendrocytes; conditions: for expression of MBP by western blot: 4-week-old treated cocultures, 10 μg/ml for Fc fusions; for number of myelinating MBP+ cells compared with controls: cocultures infected with lentivirus for two weeks, FIG. 10E; for MBP in cultures by western blot: cocultures infected with lentivirus, FIG. 10F
# Description: The role of Sp35 in myelination was examined in vitro by treating co-cultures of dorsal root ganglion (DRG) neurons and oligodendrocytes with Sp35-Fc and testing for myelination by immunohistochemistry and electron microscopy. For these studies, it was necessary to first generate primary cultures of DRG neurons and of oligodendrocytes.
# Female Long Evans rat E14-E17 embryonic dorsal root ganglia were cultured as described by Plant et al., J. Neurosci. 22:6083-91 (2002). Dissected DRGs were plated on poly-L-lysine-coated cover slips (100 μg/ml) for 2 weeks in the presence of fluorodeoxyuridine for days 2-6 and days 8-11 in NLA medium containing 1× B27, 100 ng/ml NGF (Invitrogen).
# A2B5^+ oligodendrocytes were prepared as described in Example 1, and were harvested by trypsinization.
# For coculture studies, A2B5^+ oligodendrocytes were added to DRG neuron drop cultures in the presence or absence of 10 μg/ml Sp35-Fc. The culture medium (Neurobasal medium supplemented with B27 and 100 ng/ml NGF) was changed, and fresh Sp35-Fc was added to the cells every 3 d. To identify changes in myelination, 2-week-old cultures were stained by immunohistochemical staining (“IHC”) for neurofilaments with anti-βIII-tubulin antibody to identify axons, or anti-MBP antibody to identify oligodendrocytes., and 4-week-old cultures were subjected to SDS-PAGE followed by western blot analyses to quantify the MBP. In selected examples, cells were fixed for electron microscopy studies by adding 2.5% gluteraldehyde directly onto the cover slips. Myelinated axons in the 2-week-old cultures were quantified by counting the number of myelinated internode bundles that were derived from single MBP^+ oligodendrocytes. Samples were analyzed in duplicate. Error bars denote individual determinations. P values in all studies were determined using a one-way analysis of variance.
# Several peptides containing portions of the Ig domain of Sp35 were examined in vitro, by treating co-cultures of dorsal root ganglion (DRG) neurons and oligodendrocytes with Sp35 Ig peptides and testing for myelination as described in Example 5.
# For co-culture studies, A2B5^+ oligodendrocytes were added to DRG neuron drop cultures in the presence or absence of 10 μg/ml Sp35-Ig-Fc (Sp35 amino acids 417-493 fused to Fc). The culture medium (Neurobasal medium supplemented with B27 and 100 ng/ml NGF) was changed, and fresh Sp35-Ig-Fc was added to the cells every 3 d. To identify changes in myelination, 2-week-old cultures were stained by immunohistochemical staining (“IHC”) for neurofilaments with anti-βIII-tubulin antibody to identify axons, or anti-MBP antibody to identify oligodendrocytes and 4-week-old cultures were subjected to SDS-PAGE followed by western blot analyses to quantify the MBP.
# We performed experiments to address the relative contributions to the myelination process of Sp35 in DRG neurons as compared to oligodendrocytes. We infected DRG neurons, oligodendrocytes and co-cultures (prepared as described in Example 5) with the FL-Sp35 and DN-Sp35 lentiviral vectors described in Example 1 and performed immunohistochemical straining for myelinated MBP cells after two weeks. A 2-fold increase in MBP levels in co-cultures where both cells express DN-Sp35 and a 2-fold decrease in MBP levels in co-cultures where both cells express FL-Sp35 was observed (FIG. 10G).
# Fyn kinase = assay: Fyn expression and phosphorylation in oligodendrocytes by western blotting; conditions: lentivirus-infected oligodendrocytes, FIG. 9B
# Description: The activity of RhoA GTPase is regulated by Fyn kinase See Liang, X, et al., J. Neurosci. 24:7140-7149 (2004). Increased Fyn expression and phosphorylation correlate with oligodendrocyte differentiation. Id. See also Osterhout, D. J., et al., J. Cell Biol. 145:1209-1218 (1999). To test if Sp35 antagonists affect Fyn function, Fyn expression and phosphorylation were measured directly by western blotting.
# Oligodendrocytes = assay: Oligodendrocyte differentiation after infection with FL-Sp35 or DN-Sp35 lentivirus; conditions: lentivirus at 2 MOI per cell
# Description: Enriched populations of oligodendrocytes were grown from female Long Evans P2 rats as described by Conn, Meth. Neurosci. 2:1-4 (Academic Press; 1990) with modifications as follows. Briefly, the forebrain was dissected and placed in Hank's buffered salt solution (HBSS; Invitrogen). The tissue was cut into 1-mm fragments and was incubated at 37° C. for 15 min in 0.01% trypsin and 10 μg/ml DNase. Dissociated cells were plated on poly-L-lysine-coated T75 tissue culture flasks and were grown at 37° C. for 10 d in DMEM medium with 20% fetal calf serum (Invitrogen). Oligodendrocyte precursors (A2B5+) were collected by shaking the flask overnight at 200 rpm at 37° C., resulting in a 95% pure population. Cultures were maintained in high-glucose Dulbecco's modified Eagle's medium (DMEM) with FGF/PDGF (10 ng/ml; Peprotech) for 1 week. Removal of FGF/PDGF allowed A2B5^+ cells to differentiate into O4^+ premyelinating oligodendrocytes after 3-7 d, and to differentiate into O4^+ and MBP^+ mature oligodendrocytes after 7-10 d. These differentiation states are readily apparent from changes in morphology: A2B5^+ cells are bipolar in shape, O4^+ premyelinating oligodendrocytes have longer and more branched processes and MBP^+ mature oligodendrocytes contain myelin sheet structures between processes.
# We constructed lentiviral vectors that express wild-type and a dominant-negative form of Sp35. […]
# [2] = co-cultures where both cell types express the construct, two weeks, FIG. 10G
molecule,measurement,setting,value
"Ac-CLSPRKHC (SEQ ID NO:66) (Ac-CLSPRKHC-NH2; disulfide 1-8 (inferred); listed as Homo sapiens) [cyclized LSPRKH peptide with terminal cysteines, acetyl at N-terminus and NH2 at C-terminus]",expression of MBP by western blot,[1],increased expression of MBP
Biotin-GSGCLSPRKHC (SEQ ID NO:63; cysteine pairing not given here),expression of MBP by western blot,[1],increased expression of MBP
Biotin-GSGCKHSPLRC (SEQ ID NO:64; cysteine pairing not given here) [reference compound],expression of MBP by western blot,[1],no increase in MBP
Biotin-GSGCLSPEKVC (SEQ ID NO:65; cysteine pairing not given here) [reference compound],expression of MBP by western blot,[1],no increase in MBP
"Ac-CLSPEKVC (SEQ ID NO:67) (disulfide 1-8 (inferred); listed as Homo sapiens) [cyclic control peptide, reference compound]",expression of MBP by western blot,[1],no increase in MBP
B1,Fyn phosphorylation,Fyn kinase,twofold increases
same,Fyn protein expression,Fyn kinase,twofold increases
same,number of mature oligodendrocytes compared with the control,Oligodendrocytes,increase in the number of mature oligodendrocytes
same,increase in MBP levels,[1]; [2],2 fold
same,number of myelinating MBP+ cells compared with controls,[1],increased the total number of myelinating MBP^+ cells five- to tenfold
same,MBP in cultures by western blot,[1],tenfold increase
B2,Fyn phosphorylation,Fyn kinase,reduced by twofold
same,Fyn protein expression,Fyn kinase,reduced by twofold
same,number of mature oligodendrocytes compared with the control,Oligodendrocytes,reduction in the number of mature oligodendrocytes
same,decrease in MBP levels,[1]; [2],2 fold
same,number of myelinating MBP+ cells compared with controls,[1],decreased the number of myelinating MBP^+ cells twofold
same,MBP in cultures by western blot,[1],twofold reduction
same,basal levels of myelination in comparison to control (empty vector),[1]; overexpression in either or both cell types,significantly descreased
B3,expression of MBP by western blot,[1],increased
same,increase in MBP protein compared with Sp35-Fc,"[1]; western blot, FIG. 15",comparable
